We go through 4 molecules from patent US20180222992A1 (Hoffmann-La Roche, published 2018).

Test [1] concerns the target A-beta (human). Kind of test: cell-based or functional assay.
Test [2] has as its target T1, A-beta peptide (1-40) (human).
T1 construct: also called Aβ(1-40); Aβ40
The test can be described thus: BIAcore; after 14 days, pH 7.4, 37° C., PBS buffer, relative to untreated control. The method, then: (§1) After incubation ended, samples were analyzed for relative active concentration (BIAcore), aggregation (SEC) and fragmentation (capillary electrophoresis or SDS-PAGE) and compared with the untreated control.
(In general: Surface plasmon resonance follows binding to a sensor surface in real time, without labels.)

Test [3] concerns the target T2, human transferrin receptor (human, UniProt P02786 89-760).
T2 construct: also called human TfR; Recombinant His6-tagged human transferrin receptor (R&D systems, cat. no 2474-TR-050)
Described as above. How it is done: as §1

In test [4] the target is T1, A-beta peptide (1-40). The test can be described thus: BIAcore; after 14 days, pH 6.0, 40° C., His/NaCl buffer, relative to untreated control. How it is done: as §1
In test [5] the target is T2, human transferrin receptor. The test is described as above. How it is done:
as §1

T2 sequence (P02786 89-760 limits assumed): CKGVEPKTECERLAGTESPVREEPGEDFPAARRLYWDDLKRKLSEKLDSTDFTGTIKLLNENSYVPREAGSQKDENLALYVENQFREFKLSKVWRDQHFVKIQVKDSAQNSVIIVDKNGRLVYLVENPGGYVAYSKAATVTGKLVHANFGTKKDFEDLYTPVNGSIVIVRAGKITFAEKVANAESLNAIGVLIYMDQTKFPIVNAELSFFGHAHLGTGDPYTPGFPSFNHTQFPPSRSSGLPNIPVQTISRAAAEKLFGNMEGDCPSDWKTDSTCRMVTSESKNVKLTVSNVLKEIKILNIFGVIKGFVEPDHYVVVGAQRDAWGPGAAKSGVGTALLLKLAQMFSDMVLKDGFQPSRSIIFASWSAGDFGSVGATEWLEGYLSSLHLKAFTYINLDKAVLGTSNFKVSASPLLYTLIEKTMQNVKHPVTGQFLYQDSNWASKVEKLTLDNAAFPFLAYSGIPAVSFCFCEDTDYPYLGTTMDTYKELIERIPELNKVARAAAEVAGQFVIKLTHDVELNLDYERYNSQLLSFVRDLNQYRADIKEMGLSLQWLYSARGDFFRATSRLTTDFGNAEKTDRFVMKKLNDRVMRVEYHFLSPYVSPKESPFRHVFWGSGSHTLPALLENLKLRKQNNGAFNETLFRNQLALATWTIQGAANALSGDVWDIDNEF

B1: Antibody 0012 (bispecific antibody, human IgG1, kappa)
chain 1: DIVLTQSPATLSLSPGERATLSCRASQSVSSSYLAWYQQKPGQAPRLLIYGASSRATGVPARFSGSGSGTDFTLTISSLEPEDFATYYCLQIYNMPITFGQGTKVEIKRTVAAPSVFIFPPSDRKLKSGTASVVCLLNNFYPREAKVQWKVDNALQSGNSQESVTEQDSKDSTYSLSSTLTLSKADYEKHKVYACEVTHQGLSSPVTKSFNRGEC
chain 2: not shown
chain 3: QSMQESGPGLVKPSQTLSLTCTVSGFSLSSYAMSWIRQHPGKGLEWIGYIWSGGSTDYASWAKSRVTISKTSTTVSLKLSSVTAADTAVYYCARRYGTSYPDYGDASGFDPWGQGTLVTVSSASVAAPSVFIFPPSDEQLKSGTASVVCLLNNFYPREAKVQWKVDNALQSGNSQESVTEQDSKDSTYSLSSTLTLSKADYEKHKVYACEVTHQGLSSPVTKSFNRGEC
chain 4: not shown
notes: knob-into-hole; The anti-A-beta light chain occurs twice
B1: in test [1], the “IL-8 [ng/ml], U937-cell assay” value amounted to 7 ng/mL. The “IP-10 [ng/ml], U937-cell assay” value in test [1] worked out at 5.3 ng/mL. Further, the “relative A-beta peptide (1-40) binding by BIAcore” value (from here on “relative A-beta peptide”) worked out at 82% in test [2] and 87% in test [4]. The entries for the “relative human transferrin receptor binding by BIAcore” value in test [3] and in test [5] were 78% and 101%, respectively.

B2: Antibody 0020 (bispecific antibody, human IgG1, kappa)
chain 1: DIVLTQSPATLSLSPGERATLSCRASQSVSSSYLAWYQQKPGQAPRLLIYGASSRATGVPARFSGSGSGTDFTLTISSLEPEDFATYYCLQIYNMPITFGQGTKVEIKRTVAAPSVFIFPPSDRKLKSGTASVVCLLNNFYPREAKVQWKVDNALQSGNSQESVTEQDSKDSTYSLSSTLTLSKADYEKHKVYACEVTHQGLSSPVTKSFNRGEC
chain 2: not shown
chain 3: not shown
B2: in test [1], the “IL-8 [ng/ml], U937-cell assay” value stood at 7 ng/mL and the “IP-10 [ng/ml], U937-cell assay” value stood at 4.5 ng/mL.

B3: Antibody 0015 (bispecific antibody)
light 1: DIVLTQSPATLSLSPGERATLSCRASQSVSSSYLAWYQQKPGQAPRLLIYGASSRATGVPARFSGSGSGTDFTLTISSLEPEDFATYYCLQIYNMPITFGQGTKVEIKRTVAAPSVFIFPPSDRKLKSGTASVVCLLNNFYPREAKVQWKVDNALQSGNSQESVTEQDSKDSTYSLSSTLTLSKADYEKHKVYACEVTHQGLSSPVTKSFNRGEC
heavy 1: not shown
light 2: AIQLTQSPSSLSASVGDRVTITCRASQSISSYLAWYQQKPGKAPKLLIYRASTLASGVPSRFSGSGSGTDFTLTISSLQPEDFATYYCQQNYASSNVDNTFGGGTKVEIKSSASTKGPSVFPLAPSSKSTSGGTAALGCLVKDYFPEPVTVSWNSGALTSGVHTFPAVLQSSGLYSLSSVVTVPSSSLGTQTYICNVNHKPSNTKVDKKVEPKSC
heavy 2: not shown
notes: knob-into-hole
In the case of B3, the “IP-10 [ng/ml], U937-cell assay” value in test [1] came out at 5 ng/mL. Besides, the results for the “relative A-beta peptide” value in test [2] and in test [4] were 86% and 96%, respectively. Moreover, the “relative human transferrin receptor binding by BIAcore” value is 85% in test [3] and 91% in test [5].

B4: Antibody 0024 (bispecific antibody, human IgG1, kappa)
chain 1: not shown
chain 2: not shown
chain 3: AIQLTQSPSSLSASVGDRVTITCRASQSISSYLAWYQQKPGKAPKLLIYRASTLASGVPSRFSGSGSGTDFTLTISSLQPEDFATYYCQQNYASSNVDNTFGGGTKVEIKSSASTKGPSVFPLAPSSKSTSGGTAALGCLVKDYFPEPVTVSWNSGALTSGVHTFPAVLQSSGLYSLSSVVTVPSSSLGTQTYICNVNHKPSNTKVDKKVEPKSC
chain 4: not shown
notes: as for B1
In the case of B4, the “IL-8 [ng/ml], U937-cell assay” value in test [1] is 8 ng/mL. The “IP-10 [ng/ml], U937-cell assay” value in test [1] is 5.2 ng/mL. Moreover, the figures for the “relative A-beta peptide” value in test [2] and in test [4] were 101% and 97%, respectively. Further, the “relative human transferrin receptor binding by BIAcore” value came to 90% in test [3] and 93% in test [5].
